# Values quoted from earlier work in patent publication US10195287B2, “Biologically active insulin derivatives” (Chemical & Biopharmaceutical Laboratories of Patras S.A., priority 2013, dated 2019).
# Target: human receptor (Homo sapiens, UniProt P06213)
# Settings: compared with human insulin
row,Substance,activity on the human receptor
1,Porcine insulin: animal insulin with a single amino acid variation from the human variety,approximately the same strength
2,bovine insulin: animal insulin that varies from human insulin by three amino acids,approximately the same strength
